B1: 1F11/2H5/3F5 triple mutant IgG (antibody, name in Kabat numbering, V domains shown)
VH: EVQLVESGGGLVQPGGSLRLSCAASGFTFSNTYISWVRQAPGKGLEWVASITPSSGQTDYADSVKGRFTISADTSKNTAYLQMNSLRAEDTAVYYCARTWLLRWVMDYWGQGTLVTVSS
VL: DIQMTQSPSSLSASVGDRVTITCRASQDVSTAVAWYQQKPGKAPKLLIYSAKFLYSGVPSRFSGSGSGTDFTLTISSLQPEDFATYYCQQSYTNPPTFGQGTKVEIK
notes: S52K put into the 2H5 light chain, paired with the 3F5 heavy chain; human kappa IgG1
B2: 1F11/Y102L T110A IgG (antibody, name in Kabat numbering, V domains shown)
VH: B1 VH with Q57S, Y108L, T116A
VL: B1 VL with N94T
notes: Human kappa IgG1
B3: 1F11/2C11/3F5 triple mutant IgG (antibody, name in Kabat numbering, V domains shown)
VH: B1 VH
VL: B1 VL with N94Q
notes: S52K put into the 2C11 light chain, paired with the 3F5 heavy chain; human kappa IgG1
B4: 3F5/Y102L T110A IgG (antibody, name in Kabat numbering, V domains shown)
VH: B1 VH with Y108L, T116A
VL: B1 VL with K52S, N94T
notes: Human kappa IgG1
B5: 1F11/Y102L IgG (antibody, V domains shown)
VH: B1 VH with Q57S, Y108L
VL: B1 VL with N94T
notes: Human kappa IgG1
B6: 3F5/Y102L IgG (antibody, name in Kabat numbering, V domains shown)
VH: B1 VH with Y108L
VL: B1 VL with K52S, N94T
notes: Human kappa IgG1
B7: 1F11 IgG (antibody, V domains shown)
VH: B1 VH with Q57S
VL: B1 VL with N94T

Changes are numbered by the printed parent chain. Names may count otherwise.

The target of one assay is linear diubiquitin (Boston Biochem) (Homo sapiens (Human), UniProt P0CG48 1-152). The experiment in a line: western blot, 1 µg/mL IgG. (A western blot detects proteins with antibodies after separation by electrophoresis.)
On to B1, for which the binding result is recorded as “binds”.
Still for that read-out and setting: the result for B2 reads “binds”; that for B3, “binds”.
The same measure, in the same setting: the result for B4 reads “binds”; that for B5, “binds”; that for B6, “binds”.

The next assay has as its target T1, K63-linked diubiquitin (Boston Biochem) (Homo sapiens (Human), UniProt P0CG48 1-76, isopeptide bond between the C-terminus of one ubiquitin and Lys63 of the other).
T1 construct: Two ubiquitin units; also called K63 diUb
The experiment in a line: western blot. Here is the method: Non-specific binding sites on the membranes were blocked by incubation in 5% milk in PBST for 1 hour at 25° C. with shaking. […] The membranes were washed three times in PBST with shaking. The IgGs were detected by incubating the membrane in a 1:10,000 dilution of a goat anti-human Fc fragment-specific IR Dye 800CW-conjugated secondary antibody (Rockland Immunochemicals) in 5% milk in PBST for 30 minutes at 25° C. with shaking. The membranes were then washed three times in PBST followed by one wash in PBS.
As to B7, the binding result is reported as “no binding”.

These data come from patent US20250243265A1 (published 2025).
